Measurements from IntAct's records for PubMed 28497574.

B1: Methylmalonic aciduria type A protein, mitochondrial (Homo sapiens), Q8IVH4 (parent)
chain: MPMLLPHPHQHFLKGLLRAPFRCYHFIFHSSTHLGSGIPCAQPFNSLGLHCTKWMLLSDGLKRKLCVQTTLKDHTEGLSDKEQRFVDKLYTGLIQGQRACLAEAITLVESTHSRKKELAQVLLQKVLLYHREQEQSNKGKPLAFRVGLSGPPGAGKSTFIEYFGKMLTERGHKLSVLAVDPSSCTSGGSLLGDKTRMTELSRDMNAYIRPSPTRGTLGGVTRTTNEAILLCEGAGYDIILIETVGVGQSEFAVADMVDMFVLLLPPAGGDELQGIKRGIIEMADLVAVTKSDGDLIVPARRIQAEYVSALKLLRKRSQVWKPKVIRISARSGEGISEMWDKMKDFQDLMLASGELTAKRRKQQKVWMWNLIQESVLEHFRTHPTVREQIPLLEQKVLIGALSPGLAADFLLKAFKSRD
partner: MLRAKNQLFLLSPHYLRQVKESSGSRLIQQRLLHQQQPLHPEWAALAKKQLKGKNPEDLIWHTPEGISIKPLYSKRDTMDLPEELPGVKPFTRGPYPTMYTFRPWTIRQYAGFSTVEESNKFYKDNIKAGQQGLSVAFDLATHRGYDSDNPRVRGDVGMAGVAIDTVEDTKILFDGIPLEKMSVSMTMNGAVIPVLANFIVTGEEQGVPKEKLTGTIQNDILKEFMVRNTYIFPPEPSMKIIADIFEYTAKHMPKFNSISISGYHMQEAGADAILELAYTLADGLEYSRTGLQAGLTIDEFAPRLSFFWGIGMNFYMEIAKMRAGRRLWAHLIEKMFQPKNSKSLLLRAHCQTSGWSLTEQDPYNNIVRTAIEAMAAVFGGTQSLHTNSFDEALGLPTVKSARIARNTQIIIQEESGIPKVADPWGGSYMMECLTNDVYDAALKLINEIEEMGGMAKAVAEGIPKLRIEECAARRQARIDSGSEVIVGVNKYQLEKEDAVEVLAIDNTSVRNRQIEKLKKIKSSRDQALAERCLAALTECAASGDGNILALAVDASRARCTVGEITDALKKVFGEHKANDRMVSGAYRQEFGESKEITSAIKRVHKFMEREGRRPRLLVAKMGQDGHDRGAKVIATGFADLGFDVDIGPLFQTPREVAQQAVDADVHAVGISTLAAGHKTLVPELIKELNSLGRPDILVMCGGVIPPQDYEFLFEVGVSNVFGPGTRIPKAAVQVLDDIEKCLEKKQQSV

Variants of: B1
Conditions: with muta_human MMUT

Row | Variant | effect of a mutation on the interaction
1 | MPMLLPHPHQHFLKGLLRAPFRCYHFIFHSSTHLGSGIPCAQPFNSLGLHCTKWMLLSDGLKRKLCVQTTLKDHTEGLSDKEQRFVDKLYTGLIQGQRACLAEAITLVESTHSRKKELAQVLLQKVLLYHREQEQSNKGKPLAFRVGLSGPPGAGKSTFIEYFGKMLTERGHKLSVLAVDPSSCTSGGSLLGDKTRMTELSRDMNAYIRPSPTRGTLGGMTRTTNEAILLCEGAGYDIILIETVGVGQSEFAVADMVDMFVLLLPPAGGDELQGIKRGIIEMADLVAVTKSDGDLIVPARRIQAEYVSALKLLRKRSQVWKPKVIRISARSGEGISEMWDKMKDFQDLMLASGELTAKRRKQQKVWMWNLIQESVLEHFRTHPTVREQIPLLEQKVLIGALSPGLAADFLLKAFKSRD [V220M] | disrupting interaction strength
2 | MPMLLPHPHQHFLKGLLRAPFRCYHFIFHSSTHLGSGIPCAQPFNSLGLHCTKWMLLSDGLKRKLCVQTTLKDHTEGLSDKEQRFVDKLYTGLIQGQRACLAEAITLVESTHSRKKELAQVLLQKVLLYHREQEQSNKGKPLAFRVELSGPPGAGKSTFIEYFGKMLTERGHKLSVLAVDPSSCTSGGSLLGDKTRMTELSRDMNAYIRPSPTRGTLGGVTRTTNEAILLCEGAGYDIILIETVGVGQSEFAVADMVDMFVLLLPPAGGDELQGIKRGIIEMADLVAVTKSDGDLIVPARRIQAEYVSALKLLRKRSQVWKPKVIRISARSGEGISEMWDKMKDFQDLMLASGELTAKRRKQQKVWMWNLIQESVLEHFRTHPTVREQIPLLEQKVLIGALSPGLAADFLLKAFKSRD [G147E] | disrupting interaction strength
3 | MPMLLPHPHQHFLKGLLRAPFRCYHFIFHSSTHLGSGIPCAQPFNSLGLHCTKWMLLSDGLKRKLCVQTTLKDHTEGLSDKEQRFVDKLYTGLIQGQRACLAEAITLVESTHSRKKELAQVLLQKVLLYHREQEQSNKGKPLAFRVGLSGPPGAGKSTFIEYFGKMLTERGHKLSVLAVDPSSCTSGGSLLGDKTQMTELSRDMNAYIRPSPTRGTLGGVTRTTNEAILLCEGAGYDIILIETVGVGQSEFAVADMVDMFVLLLPPAGGDELQGIKRGIIEMADLVAVTKSDGDLIVPARRIQAEYVSALKLLRKRSQVWKPKVIRISARSGEGISEMWDKMKDFQDLMLASGELTAKRRKQQKVWMWNLIQESVLEHFRTHPTVREQIPLLEQKVLIGALSPGLAADFLLKAFKSRD [R196Q] | with no effect
4 | MPMLLPHPHQHFLKGLLRAPFRCYHFIFHSSTHLGSGIPCAQPFNSLGLHCTKWMLLSDGLKRKLCVQTTLKDHTEGLSDKEQRFVDKLYTGLIQGQGACLAEAITLVESTHSRKKELAQVLLQKVLLYHREQEQSNKGKPLAFRVGLSGPPGAGKSTFIEYFGKMLTERGHKLSVLAVDPSSCTSGGSLLGDKTRMTELSRDMNAYIRPSPTRGTLGGVTRTTNEAILLCEGAGYDIILIETVGVGQSEFAVADMVDMFVLLLPPAGGDELQGIKRGIIEMADLVAVTKSDGDLIVPARRIQAEYVSALKLLRKRSQVWKPKVIRISARSGEGISEMWDKMKDFQDLMLASGELTAKRRKQQKVWMWNLIQESVLEHFRTHPTVREQIPLLEQKVLIGALSPGLAADFLLKAFKSRD [R98G] | disrupting interaction strength
5 | MPMLLPHPHQHFLKGLLRAPFRCYHFIFHSSTHLGSGIPCAQPFNSLGLHCTKWMLLSDGLKRKLCVQTTLKDHTEGLSDKEQRFVDKLYTGLIQGQRACLAEAITLVESTHSRKKELAQVLLQKVLLYHREQEQSNKGKPLAFRVGLSGPPGAGKSTFIEYFGKMLTERGHKLSVLAVDPSSCTSGGSLLDDKTRMTELSRDMNAYIRPSPTRGTLGGVTRTTNEAILLCEGAGYDIILIETVGVGQSEFAVADMVDMFVLLLPPAGGDELQGIKRGIIEMADLVAVTKSDGDLIVPARRIQAEYVSALKLLRKRSQVWKPKVIRISARSGEGISEMWDKMKDFQDLMLASGELTAKRRKQQKVWMWNLIQESVLEHFRTHPTVREQIPLLEQKVLIGALSPGLAADFLLKAFKSRD [G192D] | decreasing interaction strength
6 | MPMLLPHPHQHFLKGLLRAPFRCYHFIFHSSTHLGSGIPCAQPFNSLGLHCTKWMLLSDGLKRKLCVQTTLKDHTEGLSDKEQRFVDKLYTGLIQGQRACLAEAITLVESTHSRKKELAQVLLQKVLLYHREQEQSNKGKPLAFRVGLSGPPGAGKSTFIEYFGKMLTERGHKLSVLAVDPSSCTSGGSLLGDKTRMTELSRDMNAYIRPSPTRGTLEGVTRTTNEAILLCEGAGYDIILIETVGVGQSEFAVADMVDMFVLLLPPAGGDELQGIKRGIIEMADLVAVTKSDGDLIVPARRIQAEYVSALKLLRKRSQVWKPKVIRISARSGEGISEMWDKMKDFQDLMLASGELTAKRRKQQKVWMWNLIQESVLEHFRTHPTVREQIPLLEQKVLIGALSPGLAADFLLKAFKSRD [G218E] | disrupting interaction strength
7 | MPMLLPHPHQHFLKGLLRAPFRCYHFIFHSSTHLGSGIPCAQPFNSLGLHCTKWMLLSDGLKRKLCVQTTLKDHTEGLSDKEQRFVDKLYTGLIQGQRACLAEAITLVESTHSRKKELAQVLLQKVLLYHREQEQSNKGKPLAFRVGLSGPPGAGKSTFIEYFGKMLTERGHKLSVLAVDPSSCTSGGSLLGDKTRMTELSRDMNAYIRPSPTRGTLGGVTRTTNEAILLCEGAGYDIILIETVGVGQSKFAVADMVDMFVLLLPPAGGDELQGIKRGIIEMADLVAVTKSDGDLIVPARRIQAEYVSALKLLRKRSQVWKPKVIRISARSGEGISEMWDKMKDFQDLMLASGELTAKRRKQQKVWMWNLIQESVLEHFRTHPTVREQIPLLEQKVLIGALSPGLAADFLLKAFKSRD [E250K] | decreasing interaction strength

Variants of: B1
Conditions: with muta_human MMUT
Remark: another data set of the same source

Row | Variant | effect of a mutation on the interaction
8 | MPMLLPHPHQHFLKGLLRAPFRCYHFIFHSSTHLGSGIPCAQPFNSLGLHCTKWMLLSDGLKRKLCVQTTLKDHTEGLSDKEQRFVDKLYTGLIQGQRACLAEAITLVESTHSRKKELAQVLLQKVLLYHREQEQSNKGKPLAFRVGLSGPPGAGKSTFIEYFGKMLTERGHKLSVLAVDPSSCTSGGSLLGDKTRMTELSRDMNAYIRPSPTRGTLGGVTRTTNEAILLCEGAGYDIILIENVGVGQSEFAVADMVDMFVLLLPPAGGDELQGIKRGIIEMADLVAVTKSDGDLIVPARRIQAEYVSALKLLRKRSQVWKPKVIRISARSGEGISEMWDKMKDFQDLMLASGELTAKRRKQQKVWMWNLIQESVLEHFRTHPTVREQIPLLEQKVLIGALSPGLAADFLLKAFKSRD [T243N] | disrupting interaction strength
